Assay results from the supplement of paper PMC9112550, “Optimization of the antimicrobial peptide Bac7 by deep mutational scanning” (BMC Biology, 2022).

Tested on: Escherichia coli TOP10
Test: shrunken log2 fold change of peptide-encoding DNA abundance (4.5 h post-induction vs induction); higher = less antimicrobial activity (less host growth inhibition)
Conditions: time post-induction: 4.5 h; library: site-saturation at positions 5, 18, 19, 20
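Note: peptides expressed intracellularly from a pBAD plasmid library in pooled LB shake-flask culture, induced with 0.3% L-arabinose, DNA abundance read by NGS, three biological replicates, DESeq2 with apeglm shrinkage.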

| Sequence | shrunken log2 fold change |
| --- | --- |
| RRIRRRPPRLPRPRPRPWWMPRP | 0.386 |
| RRIRLRPPRLPRPRPRPHLTPRP | -0.241 |
| RRIRCRPPRLPRPRPRPMVAPRP | 0.0319 |
| RRIRPRPPRLPRPRPRPVDMPRP | 0.0425 |
| RRIRVRPPRLPRPRPRPFVPPRP | -0.0478 |
| RRIRWRPPRLPRPRPRPPYVPRP | -0.284 |
| RRIRFRPPRLPRPRPRPAFWPRP | 0.516 |
| RRIRDRPPRLPRPRPRPMAVPRP | 0.417 |
| RRIRARPPRLPRPRPRPGRMPRP | 0.237 |
| RRIRTRPPRLPRPRPRPLQEPRP | 0.0814 |
| RRIRTRPPRLPRPRPRPCKTPRP | -0.0173 |
| RRIRFRPPRLPRPRPRPAEKPRP | -0.0885 |
| RRIRARPPRLPRPRPRPKCVPRP | 0.463 |
| RRIRPRPPRLPRPRPRPSSQPRP | -0.201 |
| RRIRFRPPRLPRPRPRPGKIPRP | -0.024 |
| RRIRWRPPRLPRPRPRPYHTPRP | -0.816 |
| RRIRQRPPRLPRPRPRPCEVPRP | -0.00192 |
| RRIRDRPPRLPRPRPRPYICPRP | -0.148 |
| RRIRYRPPRLPRPRPRPSTCPRP | -0.687 |
| RRIRNRPPRLPRPRPRPKVNPRP | 0.0323 |
| RRIRVRPPRLPRPRPRPKKSPRP | 0.585 |
| RRIRERPPRLPRPRPRPHCTPRP | -0.0432 |
| RRIRKRPPRLPRPRPRPHFNPRP | -0.0789 |

| Sequence | shrunken log2 fold change |
| --- | --- |
| RRIRYRPPRLPRPRPRPYQQPRP | -0.0715 |
| RRIRVRPPRLPRPRPRPTHQPRP | 0.209 |
| RRIRNRPPRLPRPRPRPRNPPRP | 0.0944 |
| RRIRTRPPRLPRPRPRPKSVPRP | -0.0225 |
| RRIRIRPPRLPRPRPRPYYNPRP | -0.679 |
| RRIRQRPPRLPRPRPRPESTPRP | -0.0105 |
| RRIRMRPPRLPRPRPRPETTPRP | 3.65 |
| RRIRGRPPRLPRPRPRPIWLPRP | 0.159 |
| RRIRERPPRLPRPRPRPQGVPRP | 0.0697 |
| RRIRKRPPRLPRPRPRPEDEPRP | 2.15 |
| RRIRSRPPRLPRPRPRPDRGPRP | -0.0384 |
| RRIRRRPPRLPRPRPRPYQAPRP | -0.303 |
| RRIRVRPPRLPRPRPRPWDVPRP | -0.0177 |
| RRIRQRPPRLPRPRPRPTNFPRP | -0.159 |
| RRIRARPPRLPRPRPRPMEMPRP | 0.163 |
| RRIRVRPPRLPRPRPRPKTIPRP | -0.26 |
| RRIRVRPPRLPRPRPRPSYPPRP | -0.392 |
| RRIRLRPPRLPRPRPRPNSAPRP | 0.0654 |
| RRIRIRPPRLPRPRPRPKKAPRP | -0.209 |
| RRIRSRPPRLPRPRPRPNHTPRP | -0.444 |
| RRIRYRPPRLPRPRPRPVTWPRP | -0.207 |
| RRIRERPPRLPRPRPRPWFCPRP | -0.375 |
| RRIRWRPPRLPRPRPRPGTRPRP | 0.377 |

| Sequence | shrunken log2 fold change |
| --- | --- |
| RRIRDRPPRLPRPRPRPYNDPRP | -0.307 |
| RRIRDRPPRLPRPRPRPEWWPRP | -0.00197 |
| RRIRVRPPRLPRPRPRPLYWPRP | -0.329 |
| RRIRDRPPRLPRPRPRPRPKPRP | 0.548 |
| RRIRVRPPRLPRPRPRPTFCPRP | -0.0418 |
| RRIRTRPPRLPRPRPRPFRLPRP | -0.365 |
| RRIRPRPPRLPRPRPRPWGFPRP | -0.129 |
| RRIRMRPPRLPRPRPRPSAAPRP | 2.7 |
| RRIRERPPRLPRPRPRPLSEPRP | 0.0884 |
| RRIRIRPPRLPRPRPRPNNDPRP | -0.967 |
| RRIRPRPPRLPRPRPRPTNHPRP | -0.134 |
| RRIRYRPPRLPRPRPRPNYHPRP | -1.04 |
| RRIRRRPPRLPRPRPRPEPMPRP | 0.882 |
| RRIRQRPPRLPRPRPRPVHVPRP | -0.0167 |
| RRIRPRPPRLPRPRPRPWDHPRP | -0.106 |
| RRIRNRPPRLPRPRPRPCMKPRP | -0.507 |
| RRIRKRPPRLPRPRPRPEFMPRP | 0.541 |
| RRIRTRPPRLPRPRPRPLYGPRP | 0.0411 |
| RRIRWRPPRLPRPRPRPLSDPRP | 0.254 |
| RRIRFRPPRLPRPRPRPGQQPRP | -0.0159 |
| RRIRKRPPRLPRPRPRPRVGPRP | 0.279 |
| RRIRGRPPRLPRPRPRPECFPRP | 1.92 |
| RRIRWRPPRLPRPRPRPHGIPRP | 0.00741 |

| Sequence | shrunken log2 fold change |
| --- | --- |
| RRIRVRPPRLPRPRPRPGSCPRP | 0.216 |
| RRIRYRPPRLPRPRPRPNCEPRP | -0.144 |
| RRIRYRPPRLPRPRPRPQYCPRP | -0.361 |
| RRIRWRPPRLPRPRPRPRREPRP | 0.427 |
| RRIRTRPPRLPRPRPRPSPPPRP | -0.0898 |
| RRIRSRPPRLPRPRPRPYEMPRP | -0.234 |
| RRIRYRPPRLPRPRPRPQWEPRP | -0.0193 |
| RRIRERPPRLPRPRPRPRSVPRP | -0.219 |
| RRIRCRPPRLPRPRPRPIGKPRP | -0.188 |
| RRIRHRPPRLPRPRPRPVLEPRP | 0.338 |
| RRIRTRPPRLPRPRPRPTWIPRP | -0.0425 |
| RRIRERPPRLPRPRPRPSVTPRP | -0.4 |
| RRIRWRPPRLPRPRPRPQFMPRP | -0.155 |
| RRIRCRPPRLPRPRPRPQMCPRP | -0.157 |
| RRIRHRPPRLPRPRPRPDKMPRP | -0.0794 |
| RRIRGRPPRLPRPRPRPDGQPRP | 0.175 |
| RRIRQRPPRLPRPRPRPPWEPRP | -0.0075 |
| RRIRVRPPRLPRPRPRPSKEPRP | -0.263 |
| RRIRIRPPRLPRPRPRPGNGPRP | 0.0389 |
| RRIRVRPPRLPRPRPRPVLYPRP | -0.281 |
| RRIRLRPPRLPRPRPRPPWFPRP | 0.165 |
| RRIRLRPPRLPRPRPRPFMIPRP | -0.186 |
